Assay: Drug-release assay of nanoparticle-conjugated linker-payloads under cleavage conditions (Cat-B, redox-responsive or pH-sensitive cleaving study), RP-HPLC
Assay type: in vitro ADME
Conditions: linker-payload conjugated to DBCO-functionalized silica nanoparticle, 37° C., 24 hours
Procedure: To assess the drug releasing profile of exemplary linker-drug conjugates, the linker-drug conjugates were each conjugated to a DBCO-functionalized ultrasmall silica nanoparticle via a click chemistry reaction between the azide groups on the linker-drug conjugate precursors and the dibenzocyclooctyne (DBCO) groups of the nanoparticles. The resulting drug-nanoparticle-conjugates were then incubated under the desired releasing conditions for release kinetics tests.
The amount of released drugs vs non-released drugs was measured using reverse phase HPLC by analyzing the area under curve (AUC) (FIG. 10A and FIG. 10B).
General Method: A Waters Xbridge Peptide BEH C18 column with 4.6 mm×50 mm dimensions, a particle size of 5 μm, and a pore size of 300 A was used (part number 186003622). Acetonitrile (VWR HiPerSolv Chromanorm, UHPLC Grade) was used as received without further preparation, […] trifluoroacetic acid in deionized water was prepared by adding 1 mL of trifluoroacetic acid (HPLC grade, Millipore-Sigma) into 999 mL 18.2 MΩ·cm deionized water that was generated using an IQ7000 Millipore deionized water system and passed through a 0.2 μm filter before use. The seal wash used for the system was composed of 90% 18.2 MΩ·cm deionized water and 10% methanol (HPLC grade, VWR). The injection needle was washed using a mixture of 25 vol % 18.2 MΩ·cm deionized water, 25 vol % acetonitrile, 25 vol % methanol, and 25 vol % 2-propanol. Samples were prepared in a concentration range of 0.25 to 2 μM and the injection volume ranges from 60 μL to 10 μL, respectively. Higher sample concentration can be used if detector signal is low. Vials used for all injections are fresh Waters Total Recovery vials with screw caps that have pre-slit PTFE septa (part number 186000385C).
Method for Protease-cleavable and Redox-responsive Linkers: Before any sample injections were started, the PDA lamp was turned on and allowed to warm up for at least 30 minutes. The system and column were equilibrated with 95% 0.01% TFA in deionized water, 5% acetonitrile for at least 10 minutes at a flow rate of 1.0 mL/min after the PDA lamp had warmed up. Two blank injections, with injection volumes of 10 μL containing only 18.2 MΩ·cm deionized water, were performed before the injection of any samples for analysis. The gradient used to elute protease-cleavable and redox-sensitive linkers conjugated to hybrid silica nanoparticles, and their components began at 95% 0.01% TFA in deionized water and 5% acetonitrile and linearly changed to 15% 0.01% TFA in deionized water, 85% acetonitrile over 8 minutes. Acetonitrile composition was increased to 95% over an additional minute and held at 95% for an additional 2 minutes to ensure that any strongly retained compounds are eluted. The composition of the solvent was then changed back to the starting composition of the gradient over an additional minute and allowed to equilibrate for 3 minutes before another injection began. Between sample injections a blank injection was run to ensure that no carryover occurred.
Method for pH-sensitive Linkers: Before any sample injections were started, the PDA lamp was turned on and allowed to warm up for at least 30 minutes. A gradient of pure deionized water and acetonitrile was used, all other consumables including column and vials were the same as for the method to purify Cat-B sensitive and redox-responsive linkers elaborated on above. Briefly the gradient composition began at 95% deionized water and 5% acetonitrile at a flow rate of 1.0 mL/min (not changed throughout the method). The composition was changed from this starting composition to 15% deionized water and 85% acetonitrile over a 12-minute period, during which the retained drug-linkers, released drug, free drug linker, and any other impurities eluted. At the 12-minute mark the composition was rapidly changed to 5% deionized water and 95% acetonitrile over the course of one minute. […]

Row | SMILES | % of Payload Release in 24 Hours Under Cleavage Conditions
1 | CC[C@@]1(O)C(=O)OCc2c1cc1n(c2=O)Cc2c-1nc1cc(F)c(C)c3c1c2[C@@H](NC(=O)C(O)c1ccc(NC(=O)[C@H](CCCCN)NC(=O)[C@H](Cc2ccccc2)NC(=O)CCOCCOCCOCCOCCOCCOCCN=[N+]=[N-])cc1)CC3 (single isomer, unassigned) [Example 29-Peak 1] | +++ (‘+++’ indicates 51-75% release)
2 | CC[C@@]1(O)C(=O)OCc2c1cc1n(c2=O)Cc2c-1nc1cc(F)c(C)c3c1c2[C@@H](NC(=O)C(O)c1ccc(NC(=O)[C@H](CCCCN)NC(=O)[C@H](Cc2ccccc2)NC(=O)CCOCCOCCOCCOCCOCCOCCN=[N+]=[N-])cc1)CC3 (single isomer, unassigned) [Example 29-Peak 2] | ++ (‘++’ indicates 26-50% release)
3 | CC[C@@]1(O)C(=O)OCc2c1cc1n(c2=O)Cc2c-1nc1cc(F)c(C)c3c1c2[C@@H](NC(=O)OCc1ccc(NC(=O)[C@H](CCCNC(N)=O)NC(=O)[C@@H](NC(=O)CCOCCOCCOCCOCCOCCN=[N+]=[N-])C(C)C)cc1)CC3 [Example 9, 4-((20S,23S)-1-azido-20-isopropyl-18,21-dioxo-23-(3-ureidopropyl)-3,6,9,12,15-pentaoxa-19,22-diazatetracosan-24-amido)benzyl ((1S,9S)-9-ethyl-5-fluoro-9-hydroxy-4-methyl-10,13-dioxo-2,3,9,10,13,15-hexahydro-1H,12H-benzo[de]pyrano[3′,4′:6,7]indolizino[1,2-b]quinolin-1-yl)carbamate] | ++++ (‘++++’ indicates 76-100% release)
4 | CC[C@@]1(O)C(=O)OCc2c1cc1n(c2=O)Cc2c-1nc1cc(F)c(C)c3c1c2[C@@H](NC(=O)OCc1ccc(NC(=O)[C@H](CCCNC(N)=O)NC(=O)[C@@H](NC(=O)CCOCCOCCOCCOCCOCCOCCOCCOCCOCCOCCOCCN=[N+]=[N-])C(C)C)cc1)CC3 [Example 11, 4-((38S,41S)-1-azido-38-isopropyl-36,39-dioxo-41-(3-ureidopropyl)-3,6,9,12,15,18,21,24,27,30,33-undecaoxa-37,40-diazadotetracontan-42-amido)benzyl ((1S,9S)-9-ethyl-5-fluoro-9-hydroxy-4-methyl-10,13-dioxo-2,3,9,10,13,15-hexahydro-1H,12H-benzo[de]pyrano[3′,4′:6,7]indolizino[1,2-b]quinolin-1-yl)carbamate] | +++ (‘+++’ indicates 51-75% release)
5 | CCc1c2c(nc3ccc(OC(C(=O)OC)c4ccc(NC(=O)[C@H](CCCNC(N)=O)NC(=O)[C@@H](NC(=O)CCOCCOCCOCCOCCOCCN=[N+]=[N-])C(C)C)cc4)cc13)-c1cc3c(c(=O)n1C2)COC(=O)[C@]3(O)CC (stereo partly drawn) [Example 12, methyl 2-(4-((20S,23S)-1-azido-20-isopropyl-18,21-dioxo-23-(3-ureidopropyl)-3,6,9,12,15-pentaoxa-19,22-diazatetracosan-24-amido)phenyl)-2-(((S)-4,11-diethyl-4-hydroxy-3,14-dioxo-3,4,12,14-tetrahydro-1H-pyrano[3′,4′:6,7]indolizino[1,2-b]quinolin-9-yl)oxy)acetate] | + (‘+’ indicates 5-25% release)
6 | CCc1c2c(nc3ccc(OC(C(=O)OC)c4ccc(NC(=O)[C@H](CCCNC(N)=O)NC(=O)[C@@H](NC(=O)CCOCCOCCOCCOCCOCCOCCOCCOCCOCCN=[N+]=[N-])C(C)C)cc4)cc13)-c1cc3c(c(=O)n1C2)COC(=O)[C@]3(O)CC (stereo partly drawn) [Example 13-R isomer, Methyl 2-(4-((32S,35S)-1-azido-32-isopropyl-30,33-dioxo-35-(3-ureidopropyl)-3,6,9,12,15,18,21,24,27-nonaoxa-31,34-diazahexatriacontan-36-amido)phenyl)-2-(((S)-4,11-diethyl-4-hydroxy-3,14-dioxo-3,4,12,14-tetrahydro-1H-pyrano[3′,4′:6,7]indolizino[1,2-b]quinolin-9-yl)oxy)acetate] | + (‘+’ indicates 5-25% release)
7 | CCc1c2c(nc3ccc(OC(C(=O)OC)c4ccc(NC(=O)[C@H](CCCNC(N)=O)NC(=O)[C@@H](NC(=O)CCOCCOCCOCCOCCOCCOCCOCCOCCOCCOCCOCCN=[N+]=[N-])C(C)C)cc4)cc13)-c1cc3c(c(=O)n1C2)COC(=O)[C@]3(O)CC (stereo partly drawn) [Example 14-R isomer, Methyl 2-(4-((38S,41S)-1-azido-38-isopropyl-36,39-dioxo-41-(3-ureidopropyl)-3,6,9,12,15,18,21,24,27,30,33-undecaoxa-37,40-diazadotetracontan-42-amido)phenyl)-2-(((S)-4,11-diethyl-4-hydroxy-3,14-dioxo-3,4,12,14-tetrahydro-1H-pyrano[3′,4′:6,7]indolizino[1,2-b]quinolin-9-yl)oxy)acetate] | + (‘+’ indicates 5-25% release)
8 | CCc1c2c(nc3ccc(OCCCNC(=O)OCc4ccc(NC(=O)[C@H](CCCNC(N)=O)NC(=O)[C@@H](NC(=O)CCOCCOCCOCCOCCOCCN=[N+]=[N-])C(C)C)cc4)cc13)-c1cc3c(c(=O)n1C2)COC(=O)[C@]3(O)CC [Example 15, 4-((20S,23S)-1-azido-20-isopropyl-18,21-dioxo-23-(3-ureidopropyl)-3,6,9,12,15-pentaoxa-19,22-diazatetracosan-24-amido)benzyl (3-(((S)-4,11-diethyl-4-hydroxy-3,14-dioxo-3,4,12,14-tetrahydro-1H-pyrano[3′,4′:6,7]indolizino[1,2-b]quinolin-9-yl)oxy)propyl)carbamate] | ++ (‘++’ indicates 26-50% release)
9 | CCc1c2c(nc3ccc(OCCCNC(=O)OCc4ccc(NC(=O)[C@H](CCCNC(N)=O)NC(=O)[C@@H](NC(=O)CCOCCOCCOCCOCCOCCOCCOCCOCCOCCN=[N+]=[N-])C(C)C)cc4)cc13)-c1cc3c(c(=O)n1C2)COC(=O)[C@]3(O)CC [Example 16, 4-((32S,35S)-1-azido-32-isopropyl-30,33-dioxo-35-(3-ureidopropyl)-3,6,9,12,15,18,21,24,27-nonaoxa-31,34-diazahexatriacontan-36-amido)benzyl (3-(((S)-4,11-diethyl-4-hydroxy-3,14-dioxo-3,4,12,14-tetrahydro-1H-pyrano[3′,4′:6,7]indolizino[1,2-b]quinolin-9-yl)oxy)propyl)carbamate] | +++ (‘+++’ indicates 51-75% release)
10 | CCc1c2c(nc3ccc(OCCCNC(=O)OCc4ccc(NC(=O)[C@H](CCCNC(N)=O)NC(=O)[C@@H](NC(=O)CCOCCOCCOCCOCCOCCOCCOCCOCCOCCOCCOCCN=[N+]=[N-])C(C)C)cc4)cc13)-c1cc3c(c(=O)n1C2)COC(=O)[C@]3(O)CC [Example 17, 4-((38S,41S)-1-azido-38-isopropyl-36,39-dioxo-41-(3-ureidopropyl)-3,6,9,12,15,18,21,24,27,30,33-undecaoxa-37,40-diazadotetracontan-42-amido)benzyl (3-(((S)-4,11-diethyl-4-hydroxy-3,14-dioxo-3,4,12,14-tetrahydro-1H-pyrano[3′,4′:6,7]indolizino[1,2-b]quinolin-9-yl)oxy)propyl)carbamate] | ++ (‘++’ indicates 26-50% release)

From patent US20230241243A1, “CARRIER PARTICLE-DRUG CONJUGATES, SELF-IMMOLATIVE LINKERS, AND USES THEREOF” (priority 2020, published 2023)
